Data set [1] concerns the molecule itself. Description: SEC. A general note: In gel filtration, larger molecules generally elute earlier.
Data set [2] concerns the molecule itself. Description: SEC. This is another data set of the same source.

Where two headings read alike, the source gives them in different places.

B1: full-length (FL) human Twinkle (aa 43-684) (enzyme, UniProt Q96RR1 43-684, looked up)
chain: ETLQALDMPVLPVTATEIRQYLRGHGIPFQDGHSCLRALSPFAESSQLKGQTGVTTSFSLFIDKTTGHFLCMTSLAEGSWEDFQASVEGRGDGAREGFLLSKAPEFEDSEEVRRIWNRAIPLWELPDQEEVQLADTMFGLTKVTDDTLKRFSVRYLRPARSLVFPWFSPGGSGLRGLKLLEAKCQGDGVSYEETTIPRPSAYHNLFGLPLISRRDAEVVLTSRELDSLALNQSTGLPTLTLPRGTTCLPPALLPYLEQFRRIVFWLGDDLRSWEAAKLFARKLNPKRCFLVRPGDQQPRPLEALNGGFNLSRILRTALPAWHKSIVSFRQLREEVLGELSNVEQAAGLRWSRFPDLNRILKGHRKGELTVFTGPTGSGKTTFISEYALDLCSQGVNTLWGSFEISNVRLARVMLTQFAEGRLEDQLDKYDHWADRFEDLPLYFMTFHGQQSIRTVIDTMQHAVYVYDICHVIIDNLQFMMGHEQLSTDRIAAQDYIIGVFRKFATDNNCHVTLVIHPRKEDDDKELQTASIFGSAKASQEADNVLILQDRKLVTGPGKRYLQVSKNRFDGDVGVFPLEFNKNSLTFSIPPKNKARLKKIKDDTGPVAKKPSSGKKGATTQNSEICSGQAPTPDQPDTSKRSK
Broadly, the stoichiometry N is a count of units in the complex or per binding partner. For the protein B1, in “SEC [1]”, the “stoichiometry N” value was around 7.

B2: Twinkle C-terminal domain with linker (CTD, amino acids 360-684) (domain or fragment, human, UniProt Q96RR1 360-684, looked up)
chain: LPAWHKSIVSFRQLREEVLGELSNVEQAAGLRWSRFPDLNRILKGHRKGELTVFTGPTGSGKTTFISEYALDLCSQGVNTLWGSFEISNVRLARVMLTQFAEGRLEDQLDKYDHWADRFEDLPLYFMTFHGQQSIRTVIDTMQHAVYVYDICHVIIDNLQFMMGHEQLSTDRIAAQDYIIGVFRKFATDNNCHVTLVIHPRKEDDDKELQTASIFGSAKASQEADNVLILQDRKLVTGPGKRYLQVSKNRFDGDVGVFPLEFNKNSLTFSIPPKNKARLKKIKDDTGPVAKKPSSGKKGATTQNSEICSGQAPTPDQPDTSKRSK
Take B2: the “stoichiometry N” value in the data set “SEC [2]” is around 12 subunit.
